From patent publication US20120316071A1 (published 2012) come the findings set out here.

Positions count from the first letter of the chain named. In names and notes the source's numbering stands.

The chains are these.
B1: Fab VH1-46_IGHD6-6*01_IGHJ1*01 S102A/S103P/S104F/H111F G55A & L6_IGKJ1*01 (Fab, V domains shown)
VH: QVQLVQSGAEVKKPGASVKVSCKASGYTFTSYYMHWVRQAPGQGLEWMGIINPSAGSTSYAQKFQGRVTMTRDTSTSTVYMELSSLRSEDTAVYYCAREEYAPFSAEYFQFWGQGTLVTVSS
VL: not shown
notes: Fab made in E. coli: CH1 with His6/Flag tags from Plasmid A, kappa constant region from Plasmid C; also called APFF G55A
B2: Fab VH1-46_IGHD6-6*01_IGHJ1*01 H111A & L6_IGKJ1*01 (Fab, V domains shown)
VH: B1 VH with A55G, A102S, P103S, F104S, F111A
VL: not shown
notes: Heavy chain CDR3 alanine mutant of the parent Fab; Fab format with CH1, kappa CL, His6 and Flag tags from the expression plasmids
B3: Fab VH1-46_IGHD6-6*01_IGHJ1*01 S104A & L6_IGKJ1*01 (Fab, V domains shown)
VH: B1 VH with A55G, A102S, P103S, F104A, F111H
VL: not shown
notes: as for B2
B4: Fab VH1-46_IGHD6-6*01_IGHJ1*01 S105A & L6_IGKJ1*01 (Fab, V domains shown)
VH: B1 VH with A55G, A102S, P103S, F104S, S105A, F111H
VL: not shown
notes: as for B2
B5: Fab VH1-46_IGHD6-6*01_IGHJ1*01 S103A & L6_IGKJ1*01 (Fab, V domains shown)
VH: B1 VH with A55G, A102S, P103A, F104S, F111H
VL: not shown
notes: as for B2
B6: Fab VH1-46_IGHD6-6*01_IGHJ1*01 S102A & L6_IGKJ1*01 (Fab, V domains shown)
VH: B1 VH with A55G, P103S, F104S, F111H
VL: not shown
notes: as for B2
B7: Fab VH1-46_IGHD6-6*01_IGHJ1*01 S102A/S103P/S104F/H111F/I51T/N52L/S54T/G56H (APFF TLTH) & L6_IGKJ1*01 (Fab, V domains shown)
VH: B1 VH with I51T, N52L, S54T, A55G, G56H
VL: not shown
notes: Fab made in E. coli; CH1 with tags and kappa CL are not included
B8: Fab VH1-46_IGHD6-6*01_IGHJ1*01 S102A/S103P/S104F/H111F/I51E/N52L/S54T/G56H (APFF ELTH) & L6_IGKJ1*01 (Fab, V domains shown)
VH: B1 VH with I51E, N52L, S54T, A55G, G56H
VL: not shown
notes: as for B7
B9: Fab VH1-46_IGHD6-6*01_IGHJ1*01 S102A/S103P/S104F/H111F/I51V/N52L/S54T/G56H (APFF VLTH) & L6_IGKJ1*01 (Fab, V domains shown)
VH: B1 VH with I51V, N52L, S54T, A55G, G56H
VL: not shown
notes: as for B7
B10: Fab VH1-46_IGHD6-6*01_IGHJ1*01 S102A/S103P/S104F/H111F/N52L/S54T/G56H (APFF LTH) & L6_IGKJ1*01 (Fab, V domains shown)
VH: B1 VH with N52L, S54T, A55G, G56H
VL: not shown
notes: Fab made in E. coli; CH1 with tags and kappa CL are not included; also called H:APFF LTH & L:wt
B11: Fab VH1-46_IGHD6-6*01_IGHJ1*01 S102A/S103P/S104F/H111F/I51H/N52L/S54T/G56H (APFF HLTH) & L6_IGKJ1*01 (Fab, V domains shown)
VH: B1 VH with I51H, N52L, S54T, A55G, G56H
VL: not shown
notes: as for B7
B12: Fab VH1-46_IGHD6-6*01_IGHJ1*01 S102A/S103P/S104F/H111F/I51A/N52L/S54T/G56H (APFF ALTH) & L6_IGKJ1*01 (Fab, V domains shown)
VH: B1 VH with I51A, N52L, S54T, A55G, G56H
VL: not shown
notes: as for B7
B13: Fab VH1-46_IGHD6-6*01_IGHJ1*01 S102A/S103P/S104F/H111F/I51W/N52L/S54T/G56H (APFF WLTH) & L6_IGKJ1*01 (Fab, V domains shown)
VH: B1 VH with I51W, N52L, S54T, A55G, G56H
VL: not shown
notes: as for B7
B14: Fab VH1-46_IGHD6-6*01_IGHJ1*01 S102A/S103P/S104F/H111F/I51N/N52L/S54T/G56H (APFF NLTH) & L6_IGKJ1*01 (Fab, V domains shown)
VH: B1 VH with I51N, N52L, S54T, A55G, G56H
VL: not shown
notes: as for B7
B15: Fab VH1-46_IGHD6-6*01_IGHJ1*01 S102A/S103P/S104F/H111F/I51Y/N52L/S54T/G56H (APFF YLTH) & L6_IGKJ1*01 (Fab, V domains shown)
VH: B1 VH with I51Y, N52L, S54T, A55G, G56H
VL: not shown
notes: as for B7
B16: Fab VH1-46_IGHD6-6*01_IGHJ1*01 S102A/S103P/S104F/H111F/I51G/N52L/S54T/G56H (APFF GLTH) & L6_IGKJ1*01 (Fab, V domains shown)
VH: B1 VH with I51G, N52L, S54T, A55G, G56H
VL: not shown
notes: as for B7
B17: Fab VH1-46_IGHD6-6*01_IGHJ1*01 S102A/S103P/S104F/H111F/I51R/N52L/S54T/G56H (APFF RLTH) & L6_IGKJ1*01 (Fab, V domains shown)
VH: B1 VH with I51R, N52L, S54T, A55G, G56H
VL: not shown
notes: as for B7

One test addresses T1, Recombinant Human DLL4 (delta-like protein 4) (human, UniProt Q9NR61 27-524).
T1 construct: Bought recombinant protein (R&D Systems Cat#1506-D4/CF); also called rHuman DLL4; Delta-like 4
The experiment in a line: ECL (MSD) multispot binding assay, DLL4 immobilised, 10 nM Fab, DLL4 signal over blank.
Regarding B1, the “Signal/Noise [10 nM Fab]” value is 44.2.

A further test deals with T2, Recombinant Human DLL4 (human, UniProt Q9NR61 27-524).
T2 construct: Bought recombinant protein (R&D Systems Cat#1506-D4/CF); also called delta-like protein 4; Delta-like 4
The experiment in a line: ECL (MSD) 96-well plate assay; plate coated with 30 ug/mL DLL4; 0.02 uM Fab.
Regarding B2, the “ECL signal” value is 11600 and the Signal/Noise was 30.6.
As to B3, the “ECL signal” value came to 163000 and the Signal/Noise is 431.
The matching figures for B4: 1100 and 2.9.
On to B5, for which the “ECL signal” value was determined as 11600 and the Signal/Noise was determined as 30.5.
Turning to B6, the “ECL signal” value stood at 19100 and the Signal/Noise worked out at 50.3.

For a further test, the target named is T3, Recombinant Human DLL4 (delta-like protein 4) (human, UniProt Q9NR61 27-529).
T3 construct: Bought recombinant human DLL4 (R&D Systems Cat#1506-D4/CF), coated on the plate; also called rHuman DLL4; Delta-like 4
The experiment in a line: 96-well plate ECL (MSD) binding assay on coated DLL4, 10 nM Fab.
Take B7: the “ECL signal” value was 123000.
Take B8: the “ECL signal” value was determined as 167000.
Same read-out and setting: as for B9, the figure is 192000; as for B10, 165000.
Turning to B11, the “ECL signal” value is 155000.
In the case of B12, the “ECL signal” value came out at 143000.
Same read-out and setting: as for B13, the figure is 126000; as for B14, 126000; as for B15, 155000.
Same read-out and setting: with B16 the figure was 131000; with B17, 92400.

The next test deals with T3, Recombinant Human DLL4 (delta-like …). The experiment in a line: ELISA on coated DLL4, 100 nM Fab.
Consider B7, for which the “ELISA signal” value turned out to be 0.641.
On the same count and under the same terms, with B8 the figure was 0.995; with B9, 1.1.
On to B10, for which the “ELISA signal” value was 1.1.
As for B11, the “ELISA signal” value worked out at 0.647.
As to B12, the “ELISA signal” value was 0.62.
Consider B13, for which the “ELISA signal” value amounted to 0.088.
Still for that read-out and setting: with B14 the figure was 1.09; with B15, 0.513; with B16, 0.407.
On the same count and under the same terms, as for B17, the figure is 0.512.

For a further test, the target named is T2, Recombinant Human DLL4. Put plainly: ECL (MSD) 96-well plate assay; plate coated with 15 ug/mL DLL4; 0.004 uM Fab.
Turning to B2, the “ECL signal” value was determined as 5020 and the Signal/Noise turned out to be 34.4.
The matching figures for B3: 3610 and 24.8.
The matching figures for B4: 181 and 1.2.
B5: the “ECL signal” value is 5150 and the Signal/Noise was determined as 35.3.
The matching figures for B6: 10300 and 70.8.

The target in a further test is T1, Recombinant Human DLL4 (delta-like …). The experiment in a line: ELISA on plate-coated DLL4, 100 nM Fab, signal minus noise. In general terms: In an ELISA, binding on a coated surface is turned into a signal by an enzyme label.
As for B1, the “ELISA (Signal-Noise)” value was 0.02.
